The target of this test is T1, human PLA2-GIB (mature, active form) (human, UniProt P04054 23-148).
T1 construct: Recombinant human PLA2GIB standard in the ELISA, and endogenous PLA2GIB of patient plasma in the functional assays; also called GIBsPLA2; sPLA2-GIB
The experiment in a line: sandwich ELISA, coated capture mAb, recombinant human standard. Here is the method: Sandwich ELISAs specific to proPLA2-GIB, PLA2GIB or both forms were performed using mAbs previously generated. For the detection of proPLA2GIB, the #8G11 mAb was used as a capture antibody and the #1C11 mAb was used as a revelation mAb. For the detection of PLA2GIB, the #14G9 mAb was used as a capture antibody and the #1C11 mAb was used as a revelation mAb. For the detection of both forms, the #7A10 mAb was used as a capture antibody and the #1C11 mAb was used as a revelation mAb. Typical assay conditions were as follows: #8G11- or #14G9-coated microplate was incubated for one hour with recombinant human proPLA2GIB or PLA2GIB standards (varying concentrations of protein in assay buffer) to generate a calibration curve. EDTA plasma samples were diluted (5- to 50-fold) in dilution buffer to their respective wells and the ELISA plate was incubated for 1 h at room temperature. […] Following washing with PBS containing 0.05% Tween 20, the binding of mAb was detected by treatment with a Streptavidin-HRP conjugate for 15 min at room temperature. TMB was added, reaction was stopped and absorbance at 450 nm was determined on a microplate reader. Signals were analyzed with a 4-parameter fit analysis using Prism™ software (Graph Pad).

T1 sequence (P04054 23-148): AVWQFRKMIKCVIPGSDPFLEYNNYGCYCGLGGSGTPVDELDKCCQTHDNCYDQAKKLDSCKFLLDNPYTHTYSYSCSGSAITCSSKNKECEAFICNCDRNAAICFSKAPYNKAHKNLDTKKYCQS

B1: monoclonal antibody 14G9 (antibody, V domains shown)
VH: QVQLQQPGAELVKPGASVKLSCKASGYTFTNYWIHWVKRRPGQGLEWIGNIDPSDTRTHYNQKFKDKATLAVDKSSSTAYMQLSSLTSEDSAVFYCARQTLYYEALDYWGQGTTLTVSS
VL: DIVMTQSHKLMSTSVGDRVSITCKASQDVSTAVAWYQEKPGQSPKLLIYWASTRHTGVPNRFTGSRSGTDYTLTISSVQAEDLALYYCQQDYSTPPTFGAGTKLELKR
notes: also called #14G9 mAb; clone 14G9
In the case of B1, the binding result is “binds”.

(Values after patent publication US20220127377A1 (DIACCURATE, published 2022).)
